Here are results for three substances from article PMC9769723.

Experiment [1] concerns the target NpSRII (Natronomonas pharaonis) (UniProt P42196). Particulars: cited from earlier work.
The target in experiment [2] is Trichococcus flocculiformis photolyase (TfPHR), class 2 cyclobutane pyrimidine dimer (CPDII) photolyase (Trichococcus flocculiformis). The experiment is described as follows: ITC; MicroCal ITC200; both proteins in sonication buffer (150 mM NaCl, 50 mM Tris-HCl pH 7.0) with 0.02% DDM; which protein was in the syringe is not given.
Experiment [3] has the same target. As to the kind of experiment: shift of the absorption spectrum of the rhodopsin after mixing; purified TfHeR and TfPHR mixed at a 1:4 molar ratio, time-dependent absorption spectra (UV-2450 spectrometer).
For experiment [4] the target is unchanged.

Chain of UniProt P42196 (P42196 whole entry): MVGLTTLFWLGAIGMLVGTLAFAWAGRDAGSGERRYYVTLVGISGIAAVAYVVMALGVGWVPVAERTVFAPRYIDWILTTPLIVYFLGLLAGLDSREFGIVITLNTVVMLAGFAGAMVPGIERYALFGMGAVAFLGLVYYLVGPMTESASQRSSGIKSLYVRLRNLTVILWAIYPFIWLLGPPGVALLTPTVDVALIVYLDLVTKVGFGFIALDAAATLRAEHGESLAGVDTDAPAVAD

As for NpHtrII (from UniProt P42259), the dissociation constant (Kd) in experiment [1] is 0.65 µM.

Substance TfHeR E97Q mutant (natural protein) showed a dissociation constant Kd in experiment [2] of 121 µM. Further, the shift of the absorption maximum after mixing (blue shift) in experiment [3] was 4 nm.

“Trichococcus flocculiformis heliorhodopsin (TfHeR) (natural protein)”: the in vitro repair of UV-damaged oligo(dT)20 by TfPHR under white light (absorbance at 265 nm), with TfHeR against TfPHR alone, at saturation in experiment [4] worked out at 3 fold. For the same substance, in experiment [2], the dissociation constant Kd was 22 µM and the dH was -18.8 kcal/mol. Further, the shift of the absorption maximum after mixing (blue shift) in experiment [3] amounted to 8 nm.
